# Measurements published in patent US20090292003A1.
# B1: CADY-2 (Ac-…-Cya) (peptide)
# peptide: GLWRALWRALWRSLWKLKWKV
# HELM: PEPTIDE1{[ac].G.L.W.R.A.L.W.R.A.L.W.R.S.L.W.K.L.K.W.K.V.[SCCN[*:1]]}$$$$V2.0
# SMILES: CC(=O)NCC(=O)N[C@@H](CC(C)C)C(=O)N[C@@H](Cc1c[nH]c2ccccc12)C(=O)N[C@@H](CCCNC(=N)N)C(=O)N[C@@H](C)C(=O)N[C@@H](CC(C)C)C(=O)N[C@@H](Cc1c[nH]c2ccccc12)C(=O)N[C@@H](CCCNC(=N)N)C(=O)N[C@@H](C)C(=O)N[C@@H](CC(C)C)C(=O)N[C@@H](Cc1c[nH]c2ccccc12)C(=O)N[C@@H](CCCNC(=N)N)C(=O)N[C@@H](CO)C(=O)N[C@@H](CC(C)C)C(=O)N[C@@H](Cc1c[nH]c2ccccc12)C(=O)N[C@@H](CCCCN)C(=O)N[C@@H](CC(C)C)C(=O)N[C@@H](CCCCN)C(=O)N[C@@H](Cc1c[nH]c2ccccc12)C(=O)N[C@@H](CCCCN)C(=O)N[C@H](C(=O)NCCS)C(C)C
# Target: short 17-residues peptide (cargo titrated against CADY-2)
# Assay: steady state Trp fluorescence quenching, fixed CADY (0.1 uM) titrated with cargo peptide in PBS, quadratic fit
binder,measurement,value
B1,Kd,19 nM
